What was measured:
Assay type in all cases: functional, cell-based, Oocyte
[1] = target: T1, Solute carrier organic anion transporter family member 1A4 (SLCO1A4, OATP1A4) (Rattus norvegicus, UniProt O35913); experiment: (§1) TP_TRANSPORTER: uptake in Xenopus laevis oocytes; conditions: Xenopus laevis oocytes expressing the transporter
T1 sequence (O35913 whole entry): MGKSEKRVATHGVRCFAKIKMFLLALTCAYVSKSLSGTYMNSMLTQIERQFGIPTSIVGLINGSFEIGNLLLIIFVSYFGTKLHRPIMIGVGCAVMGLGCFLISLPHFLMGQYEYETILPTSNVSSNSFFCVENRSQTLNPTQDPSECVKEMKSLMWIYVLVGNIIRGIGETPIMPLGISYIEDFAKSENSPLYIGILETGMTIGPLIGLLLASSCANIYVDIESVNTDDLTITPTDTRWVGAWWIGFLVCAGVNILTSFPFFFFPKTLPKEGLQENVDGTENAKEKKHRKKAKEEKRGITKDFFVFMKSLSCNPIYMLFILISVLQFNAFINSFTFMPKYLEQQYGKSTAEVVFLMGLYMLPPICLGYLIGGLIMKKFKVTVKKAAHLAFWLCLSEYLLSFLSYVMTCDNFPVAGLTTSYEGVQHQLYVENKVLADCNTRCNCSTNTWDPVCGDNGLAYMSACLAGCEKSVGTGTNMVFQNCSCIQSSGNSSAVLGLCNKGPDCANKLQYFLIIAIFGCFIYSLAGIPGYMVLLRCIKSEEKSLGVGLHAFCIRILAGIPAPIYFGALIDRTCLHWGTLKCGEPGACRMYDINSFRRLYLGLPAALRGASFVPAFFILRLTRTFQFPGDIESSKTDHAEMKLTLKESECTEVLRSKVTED

[2] = target: T2, Solute carrier organic anion transporter family member 1A4 (Rattus norvegicus, UniProt O35913); experiment: as §1; conditions: oocyte
T2 sequence (O35913 whole entry): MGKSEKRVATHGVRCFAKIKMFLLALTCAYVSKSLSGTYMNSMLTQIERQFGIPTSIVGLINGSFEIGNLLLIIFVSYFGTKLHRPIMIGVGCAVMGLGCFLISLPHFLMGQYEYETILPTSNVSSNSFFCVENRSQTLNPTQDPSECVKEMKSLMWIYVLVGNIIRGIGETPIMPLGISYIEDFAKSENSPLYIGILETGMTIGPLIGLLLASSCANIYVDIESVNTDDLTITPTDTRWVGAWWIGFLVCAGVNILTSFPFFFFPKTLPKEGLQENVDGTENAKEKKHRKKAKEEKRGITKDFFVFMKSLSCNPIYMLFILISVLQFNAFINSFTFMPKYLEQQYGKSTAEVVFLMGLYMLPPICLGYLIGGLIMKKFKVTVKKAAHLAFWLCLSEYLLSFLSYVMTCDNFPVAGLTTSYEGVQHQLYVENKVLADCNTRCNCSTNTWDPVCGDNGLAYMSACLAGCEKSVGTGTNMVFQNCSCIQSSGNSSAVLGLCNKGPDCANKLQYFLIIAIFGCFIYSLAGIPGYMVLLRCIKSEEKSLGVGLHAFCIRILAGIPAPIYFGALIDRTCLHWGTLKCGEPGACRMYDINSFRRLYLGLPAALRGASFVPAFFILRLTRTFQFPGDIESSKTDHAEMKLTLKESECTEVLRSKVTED

[3] = substrate: C[C@]12CC[C@@H]3c4ccc(OS(=O)(=O)O)cc4CC[C@H]3[C@@H]1CCC2=O; experiment: as §1
[4] = substrate: C[C@]12CC[C@@H]3c4ccc(O)cc4CC[C@H]3[C@@H]1CC[C@@H]2O[C@@H]1O[C@H](C(=O)O)[C@@H](O)[C@H](O)[C@H]1O; experiment: as §1
[5] = substrate: C[C@H]1O[C@@H](O[C@H]2[C@@H](O)C[C@H](O[C@H]3[C@@H](O)C[C@H](O[C@H]4CC[C@@]5(C)[C@H](CC[C@@H]6[C@@H]5C[C@@H](O)[C@]5(C)[C@@H](C7=CC(=O)OC7)CC[C@]65O)C4)O[C@@H]3C)O[C@@H]2C)C[C@H](O)[C@@H]1O; experiment: as §1

## C[C@@H]1O[C@@H](O[C@H]2C[C@@H](O)[C@]3(CO)[C@H]4[C@H](O)C[C@]5(C)[C@@H](C6=CC(=O)OC6)CC[C@]5(O)[C@@H]4CC[C@]3(O)C2)[C@H](O)[C@H](O)[C@H]1O [OUABAIN]
[1]
  Km: 470 µM

## CN(Cc1cnc2nc(N)nc(N)c2n1)c1ccc(C(=O)N[C@@H](CCC(=O)O)C(=O)O)cc1 [METHOTREXATE]
[2]
  Activity: is not a substrate [-]

B1: Solute carrier organic anion transporter family member 1A4 (Rattus norvegicus) (protein)
chain: MGKSEKRVATHGVRCFAKIKMFLLALTCAYVSKSLSGTYMNSMLTQIERQFGIPTSIVGLINGSFEIGNLLLIIFVSYFGTKLHRPIMIGVGCAVMGLGCFLISLPHFLMGQYEYETILPTSNVSSNSFFCVENRSQTLNPTQDPSECVKEMKSLMWIYVLVGNIIRGIGETPIMPLGISYIEDFAKSENSPLYIGILETGMTIGPLIGLLLASSCANIYVDIESVNTDDLTITPTDTRWVGAWWIGFLVCAGVNILTSFPFFFFPKTLPKEGLQENVDGTENAKEKKHRKKAKEEKRGITKDFFVFMKSLSCNPIYMLFILISVLQFNAFINSFTFMPKYLEQQYGKSTAEVVFLMGLYMLPPICLGYLIGGLIMKKFKVTVKKAAHLAFWLCLSEYLLSFLSYVMTCDNFPVAGLTTSYEGVQHQLYVENKVLADCNTRCNCSTNTWDPVCGDNGLAYMSACLAGCEKSVGTGTNMVFQNCSCIQSSGNSSAVLGLCNKGPDCANKLQYFLIIAIFGCFIYSLAGIPGYMVLLRCIKSEEKSLGVGLHAFCIRILAGIPAPIYFGALIDRTCLHWGTLKCGEPGACRMYDINSFRRLYLGLPAALRGASFVPAFFILRLTRTFQFPGDIESSKTDHAEMKLTLKESECTEVLRSKVTED
[3]
  Km: 11 µM
[4]
  Km: 3 µM
[5]
  Km: 0.24 µM

Reference: ChEMBL document CHEMBL2074389, “Isolation of a multispecific organic anion and cardiac glycoside transporter from rat brain” (Proc Natl Acad Sci U S A, 1997)
